The target of the test is prostate specific membrane antigen (human (human prostate LNCaP cells)) (UniProt Q04609). The experiment in a line: cell-based or functional assay.
Sequence of prostate specific membrane antigen (human (human prostate LNCaP cells)) (Q04609 whole entry): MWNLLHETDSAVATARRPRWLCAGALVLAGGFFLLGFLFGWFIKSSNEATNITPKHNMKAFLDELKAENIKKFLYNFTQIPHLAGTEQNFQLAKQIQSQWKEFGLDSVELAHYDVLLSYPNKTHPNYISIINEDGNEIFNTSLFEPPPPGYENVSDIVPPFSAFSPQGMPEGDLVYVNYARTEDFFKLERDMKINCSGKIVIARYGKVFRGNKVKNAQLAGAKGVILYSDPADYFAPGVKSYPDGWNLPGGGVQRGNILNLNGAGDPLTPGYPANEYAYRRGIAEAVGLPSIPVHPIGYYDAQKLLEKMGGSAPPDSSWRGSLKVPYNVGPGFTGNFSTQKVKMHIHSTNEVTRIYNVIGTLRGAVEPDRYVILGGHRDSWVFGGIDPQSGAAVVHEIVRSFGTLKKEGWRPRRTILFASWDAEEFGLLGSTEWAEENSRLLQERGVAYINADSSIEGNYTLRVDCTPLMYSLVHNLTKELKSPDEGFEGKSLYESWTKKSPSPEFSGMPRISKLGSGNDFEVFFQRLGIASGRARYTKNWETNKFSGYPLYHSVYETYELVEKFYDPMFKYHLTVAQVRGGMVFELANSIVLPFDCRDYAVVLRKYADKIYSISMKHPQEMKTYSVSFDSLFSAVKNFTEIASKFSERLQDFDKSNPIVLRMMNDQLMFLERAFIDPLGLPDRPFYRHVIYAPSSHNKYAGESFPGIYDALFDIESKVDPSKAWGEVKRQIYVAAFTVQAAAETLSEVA

As to “[DUPA-6-Ahx-Lys(DOTA)-6-Ahx-RM2] (peptide)”, the IC50 (NAALADase assay in human prostate LNCaP cells, [N-acetyl aspartyl 3H-glutamate]) turned out to be 9.3 nM and the IC50 LNCaP cells (NAALADase assay, [N-acetyl aspartyl 3H-glutamate] substrate, LNCaP homogenized cell membranes) is 10.5 nM.

The values are drawn from patent publication US20200188539A1.
